# Reference: paper doi:10.1101/2024.09.19.614007 (bioRxiv, 2024)
# B1: Escherichia coli glutamate kinase (enzyme, UniProt P0A7B5 1-367, looked up)
# chain: MSDSQTLVVKLGTSVLTGGSRRLNRAHIVELVRQCAQLHAAGHRIVIVTSGAIAAGREHLGYPELPATIASKQLLAAVGQSRLIQLWEQLFSIYGIHVGQMLLTRADMEDRERFLNARDTLRALLDNNIVPVINENDAVATAEIKVGDNDNLSALAAILAGADKLLLLTDQKGLYTADPRSNPQAELIKDVYGIDDALRAIAGDSVSGLGTGGMSTKLQAADVACRAGIDTIIAAGSKPGVIGDVMEGISVGTLFHAQATPLENRKRWIFGAPPAGEITVDEGATAAILERGSSLLPKGIKSVTGNFSRGEVIRICNLEGRDIAHGVSRYNSDALRRIAGHHSQEIDAILGYEYGPVAVHRDDMITR
# Molecular target: the molecule itself
# Assay: cryo-EM structure
protein,measurement,value
B1,stoichiometry N,4
